Measurements from the nanobody polyreactivity screen of Harvey et al. (2022).

Test: yeast display, Sf9 membrane polyspecificity reagent, FACS + sequencing; frameworks hold sequencing errors
In short: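 Polyreactivity labels are assigned by the sorting gate from which each nanobody was recovered. The gates were low and high (top ~1%), set on anti-HA fluorescence for expression and streptavidin fluorescence for reagent binding. Before sorting, galactose-induced (36–48 hours) yeast display cells were stained for 1 hour at 4 °C with 10% biotinylated, detergent-solubilized Sf9 membrane reagent.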

Sequence	polyreactivity (PSR sort gate)
QVQLVESVGGLVQAGGSLRLSCAASGFTFSSNAMGWYRQAPGKERELVAAISGTGGSTYYSDSVKVRITISRDNAKNTFYLLMNRLKPDDKAVYYCARVYNFYTSGYDYWGKGTQVTVSS	high polyreactivity
QVQLVESVGGLVQAGGSLRLSCAASGFTFTPYGMGWYRQAPGKERELVAAITWNGGRTYYADSVKGRFTISRDNAKNTVYLQMNSLKPEDTAVYYCAAVAWSWQKRGYWGQGTQVTVSS	high polyreactivity
QVQLVESVGGLVQAGGSLRLSCAASGFTFYTYAMGWYRQAPGKERELVAAINQRGGRTYYADSVKGRFTISRDNAKNTVYLQMNSLKPEDTAVYYCAKSPPPKTRYDYWGQGTQVTVSS	high polyreactivity
QVQLVESVGGLVQAGGSLRLSCAASGFTLFFYAMGWYRQAPGKERELVARITSRAGRTYYADSVKGRFTISRDNAKNTVYLQMNSLKPEDNAVFYCNTRDFSGYVHALSLYDYWGQGTQVTVSS	high polyreactivity
QVQLVESVGGLVQAGGSLRLSCAASGGIFDTYVMGWYRQAPGKERELVAAISSSGSTTYADSVKGRFTISRDNAKNTVYLQMNSLKPEDTAVYYCNADYSTIWRYDYWGQGTQVTVSS	low polyreactivity
QVQLVESVGGLVQAGGSLRLSCAASGGIFWVYAMGWYRQAPGKERELVADISIADSTNYADSVKGRFTISRDNAKNTVYLQMNSLKPEDTAVYYCNAVPSQHDEFDYWGQGTQVTVSS	low polyreactivity
QVQLVESVGGLVQAGGSLRLSCAASGIIFVYYVMGWYRQAPGKERELVASIDGSGGSTNYADSVKGRFTISRDNAKNTVYLQMNSLKPEDTAVYYCNADNILYWSTLDYWGQGTQVTVSS	low polyreactivity
QVQLVESVGGLVQAGGSLRLSCAASGIIFWWYAIGWYRQAPGKERELVAAINWSGSSTYYADSVKGRFTISRDNAKNTVYLQMKSLKPEDTAVYYCATAGIIQAESEYLSGYDYWGQGTQVTVSS	high polyreactivity
QVQLVESVGGLVQAGGSLRLSCAASGINFGFNTMGWYRQAPGKERELVAAINGSDGSTYADSVKGRFTISRDNAKNTVYLQMNSLKPEDTAVYYCAADAYDGEGTYPFEYWGQGTQVTVSS	low polyreactivity
QVQLVESVGGLVQAGGSLRLSCAASGITFYYNAMGWSRQAPGKERELVAVITSGGSTNYADSVKGRFTISRDNAKNTVYLQMNSLKPEDTAVYYCATDKSYSSWSAQYDYWGQGTQVTVSS	low polyreactivity
QVQLVESVGGLVQAGGSLRLSCAASGITSGTYAMGWYRQAPGKERELVAAISSSGGRTYYADSVKGRFTISRDNAKNTVYLQMNSLKPEDTAVYYCAARIRLSLRTGYDYWGQGTQVTVSS	high polyreactivity
QVQLVESVGGLVQAGGSLRLSCAASGLIFIISTMGWDRQAPGKERELVAAITRRGGITYYADSVKGRFTISRDNAKNTVYLQMNSLKPEDTAVYYCAVVRPYNIWYDYWGQGTQVTVSS	low polyreactivity
QVQLVESVGGLVQAGGSLRLSCAASGRIFGTNAMGWYRQAPGKERELVADITSGGSTNYADSVKGRFTISRDNAKNTVYLQMNSLKPEDTAVYYCAADVIGDLRWYRDEYWGQGTQVTVSS	low polyreactivity
QVQLVESVGGLVQAGGSLRLSCAASGRIFPWYAKGWYRQAPGKERELVAAIRWRGGGTYYADSVKGRFTISRDNAKNTVYLQMNSLKPEDTAVYYCAARRPAKGMGYWGQGTQVTVSS	high polyreactivity
QVQLVESVGGLVQAGGSLRLSCAASGRIFSTYAMGWYRQAPGKERELVAAIRFSGTSTYADSVKGRFTISRDNAKNTVYLQMNSLKPEDTAVDYCAAQRYTYYRRYGYLGQGTQVTVSS	high polyreactivity
QVQLVESVGGLVQAGGSLRLSCAASGRIFVHYVMGWYRQAPGKERELVAAISRSGGRTYYADSVKGRFTISRDNAKNSVYLQMNSLKPEDTAVYYCATDASTYKYDYWGQGTQVTVSS	high polyreactivity
QVQLVESVGGLVQAGGSLRLSCAASGRIFWNYAMGWYRQATGKERELVASISYRGGSTYYADSVKGRFTISRDNAKNTVYLQMNSLKPEDTAVYYCAARTRQARRTDYGYWGQGTQVTVSS	high polyreactivity
QVQLVESVGGLVQAGGSLRLSCAASGRIFYRYGMGWYRQAPGKERELVASITRGGSTYYADSVKGRFTISRDNAKNTVYLQMNSLKPEDTAVYYCATKSSAGYDYWGQGTQVTVSS	low polyreactivity
QVQLVESVGGLVQAGGSLRLSCAASGRILYLNVMGWYRQAPGKERELVASITVSGGITYYADSVKGRFTISRDNAKNTVYLQMNSLKPEDTAVYYCAVDAYPPFFYFTSVWFSYDYWGQGTQVTVSS	low polyreactivity
QVQLVESVGGLVQAGGSLRLSCAASGRTFAAYAMGWYRQAPGKERELVAGITSSSVRTYYADSVKGRFTISRDNAKNTVYLQMNSLKPEDTAVYYCNARADGSSSRWRPYSKFYYWGQGTQVTVSS	low polyreactivity
QVQLVESVGGLVQAGGSLRLSCAASGRTFAGNAMGWYRQAPGKEREFVASITASGVNTYYADSVKGRFTISRDNAKNTVYLQMNSLKPEDTAVYYCNKRNRWTPFYTYDYWGQGTQVTVSS	low polyreactivity
QVQLVESVGGLVQAGGSLRLSCAASGRTFAYYTMGWYRQAPGKERELVARISGYGGSTYYADSVKGRFTISRDNAKNTVYLQMNSLKPEDTAVYYCNVVGAYYRYDYWGQGTQVTVSS	high polyreactivity

Sequence	polyreactivity (PSR sort gate)
QVQLVESVGGLVQAGGSLRLSCAASGRTFFPYAMGWYRQAPGKEREFVAAITKTDDSTYYADSVKGRFTISRDNAKNTVYLQMNSLKPEDTAVYYCNAGDTQIRFYYWGQGTQVTVSS	low polyreactivity
QVQLVESVGGLVQAGGSLRLSCAASGRTFFYNAMGWYRQAPGKERELVAAIDWSGDSTYYADSVKGRFTISRDNAKNTVYLQMNSLKPEDTAVYYCAARRKNRRDYDYYYWGQGTQVTVSS	high polyreactivity
QVQLVESVGGLVQAGGSLRLSCAASGRTFGTYAMGWYRQAPGKERELVAAISTRGGRTFYADSVKGRFTISRDNAKNTVYLQMNSLKPEDTAVYYCAKGVFTWGVFRVGIRDDYWGQGTQVTVSS	high polyreactivity
QVQLVESVGGLVQAGGSLRLSCAASGRTFHYYVMGWYRQEPGKEGELVAAISRSGGNTYYADSVKGRFTISRDNAQNTVYLQMNSLKPEDTADYYCAAALSAYVKWDYYYWGQGTQVTVSS	high polyreactivity
QVQLVESVGGLVQAGGSLRLSCAASGRTFLYYTMGWYRQAPGKERELVAAISTSGGSTNYADSVKGRFTISRDNAKNTVYLQMNSLKPEDTAVYYCAAETSTNPEAYEYWGQGTQVTVSS	low polyreactivity
QVQLVESVGGLVQAGGSLRLSCAASGRTFSFYAMGRYRQRQGKESELVAGIDGNDGSTYYADSVKGRFTISRDNAKNTVYIQMNSLKPEDTAVYYCNAEKWTGQYCCYYRMYYYWGQGTQVTVSS	low polyreactivity
QVQLVESVGGLVQAGGSLRLSCAASGRTFSVYTMGWYRQAPGKERELVASINWSGGRTYYADSVKGRFTISRDNAKNTVYLQMNSLKPEDTAVYYCAATGWRTLYDYWGQGTLVTVSS	high polyreactivity
QVQLVESVGGLVQAGGSLRLSCAASGRTLSYYAMGRYRQAPGKVRELVAAISRRGGSTYYADSVKGRFTISRDKAKNTVYLQMNCLQSKDTAFYYCAATVGNAADYDYGYWGQGTQVTVSS	high polyreactivity
QVQLVESVGGLVQAGGSLRLSCAASGSIFDSYAMGWYRQAPGKERELVADISSGGSTYYADSVKGRFTISRDNAKNTVYLQMNSLKPEDTAVYYCAAQYVYYFYGDEAFTDDYWGQGTQVTVSS	low polyreactivity
QVQLVESVGGLVQAGGSLRLSCAASGSIFGYNAMGWYRQAPGKERELVAVINASGASTYYADSVKGRFTISRDNAKNTVYLQMNSLKPEDTAVYYCAKDPFPFPGGDDWGQGTQVTVSS	low polyreactivity
QVQLVESVGGLVQAGGSLRLSCAASGSIFGYYAMGWYRQAPGKDRELVAGINWSGGSTYADSVKGRFTISRDNAKNTVYIQMNSLKPEDTAVYYCNRRYRKDSSAKYDYWGQGTQVTVSS	high polyreactivity
QVQLVESVGGLVQAGGSLRLSCAASGSIFSVNAMGWYRQAPGKERELVASINFRGGRTYYADSVKGRFTISRDNAKNTVYLQMNSLKPEDTAVYYCAAVITQTDTGYGPSFRVYYWGQGTQVTVSS	high polyreactivity
QVQLVESVGGLVQAGGSLRLSCAASGSIFWFYAMGWYRQAPGKVRELVAAITSTGGTYYADSVKGRFTISRDNAKNTVYLQMNSLKPEDTSVYYCAADRFGVQGAYLYDYWGQGTQVTVSS	low polyreactivity
QVQLVESVGGLVQAGGSLRLSCAASGSTFAGNAMGWSRQAPGKERELVAAIDSSTGSTYYADSVKGRFTISRDNAKNTVYLQMNSLKPEDTSVYYSNKTSFLVKLDYWGHGTQVTVSS	low polyreactivity
QVQLVESVGGLVQAGGSLRLSCAASGSTFEIYAMGWYRQAPGKERELVAVISGGDGSTYYADSVKGRFTISRDNAKNTVYLQMNSLKPEDTAVYYCAADYISPGYWDGEYDCWGQGTQVTVSS	low polyreactivity
QVQLVESVGGLVQAGGSLRLSCAASGSTFRINAMGWYRQAPGKEMELVADINSGGNTTYADSVKGRFTISRDNAKNTVYLQMNSLKPEDTAVYYCAAEPVFDLWEFLLDYGYDYWGQGTQVTLSS	low polyreactivity
QVQLVESVGGLVQAGGSLRLSCAASGSTFVPYAMGWYRQAPGKERELVAAITTSGGNTYYADSVKGRFTISRDNAKNTVYLQMNSLKPEDTAVYYCAADTYRSFDYWGQGTQVTVSS	low polyreactivity
QVQLVESVGGLVQAGGSLRLSCAASGSTFYFNDMGWYRQAPGKERELVAAISRGGSTYYADSVKGRFTISRDTAKNTVYLQMNSLKPEDTAVYYCANGSYVRNYGYWGQGTQVTVSS	high polyreactivity
QVQLVESVGGLVQAGGSLRLSCAASGSTFYPNAMGWYRQAPGKEREFVAAITWSGGRTYYADSVKGRFTNSRDNAKNTVYLQMNSLKPEDTAVYYCSKGGYQHYCGQGTQVTVSS	high polyreactivity
QVQLVESVGGLVQAGGSLRLSCAASGSTIANYAMGWYRQAPGKERELVARIRHSDGSTYYADSVKGRFTISRDNAKNTVYLQMNSLKPEDTAVYYCNVAYPRYRGNPRQSGMGYWGQGTQVTVSS	high polyreactivity
QVQLVESVGGLVQAGGSLRLSCAASGSTLYPYAMGWYRQAPGKERELVAVITLRGGSTYYADSVKGRFTISRDNAKNTVYLQMNSLKPEDTAVYYCAARKRPFYKYDYWGQGTQVTVSS	high polyreactivity
